The text below walks through data of IntAct's records for PubMed 30026314.

B1: Protein Wnt-7a (Homo sapiens), O00755 (parent)
chain: MNRKARRCLGHLFLSLGMVYLRIGGFSSVVALGASIICNKIPGLAPRQRAICQSRPDAIIVIGEGSQMGLDECQFQFRNGRWNCSALGERTVFGKELKVGSREAAFTYAIIAAGVAHAITAACTQGNLSDCGCDKEKQGQYHRDEGWKWGGCSADIRYGIGFAKVFVDAREIKQNARTLMNLHNNEAGRKILEENMKLECKCHGVSGSCTTKTCWTTLPQFRELGYVLKDKYNEAVHVEPVRASRNKRPTFLKIKKPLSYRKPMDTDLVYIEKSPNYCEEDPVTGSVGTQGRACNKTAPQASGCDLMCCGRGYNTHQYARVWQCNCKFHWCCYVKCNTCSERTEMYTCK
partner: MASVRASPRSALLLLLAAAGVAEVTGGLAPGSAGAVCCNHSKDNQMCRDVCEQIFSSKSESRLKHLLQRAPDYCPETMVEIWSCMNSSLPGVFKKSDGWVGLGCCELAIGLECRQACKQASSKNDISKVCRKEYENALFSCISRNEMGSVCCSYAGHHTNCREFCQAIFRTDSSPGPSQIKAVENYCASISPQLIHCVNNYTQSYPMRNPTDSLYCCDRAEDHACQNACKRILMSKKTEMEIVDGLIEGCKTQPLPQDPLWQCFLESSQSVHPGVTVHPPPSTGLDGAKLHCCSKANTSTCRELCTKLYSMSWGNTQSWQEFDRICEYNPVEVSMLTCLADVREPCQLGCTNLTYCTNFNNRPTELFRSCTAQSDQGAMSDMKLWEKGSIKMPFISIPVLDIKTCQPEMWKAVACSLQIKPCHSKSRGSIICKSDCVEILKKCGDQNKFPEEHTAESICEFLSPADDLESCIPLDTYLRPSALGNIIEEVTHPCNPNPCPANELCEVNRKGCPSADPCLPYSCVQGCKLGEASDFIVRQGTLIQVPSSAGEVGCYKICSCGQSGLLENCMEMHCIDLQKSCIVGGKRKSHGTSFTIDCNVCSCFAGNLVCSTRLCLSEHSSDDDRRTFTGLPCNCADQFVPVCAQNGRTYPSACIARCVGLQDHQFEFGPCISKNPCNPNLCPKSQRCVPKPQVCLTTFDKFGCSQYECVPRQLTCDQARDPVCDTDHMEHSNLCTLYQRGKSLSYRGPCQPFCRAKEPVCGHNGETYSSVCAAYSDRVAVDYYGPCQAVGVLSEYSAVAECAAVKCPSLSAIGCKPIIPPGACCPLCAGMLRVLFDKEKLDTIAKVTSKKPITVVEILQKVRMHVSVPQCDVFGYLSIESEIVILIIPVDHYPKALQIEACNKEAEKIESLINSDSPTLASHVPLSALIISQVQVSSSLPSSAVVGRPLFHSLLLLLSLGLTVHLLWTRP

This experiment covers variants of B1. The settings on record: with reck_mouse Reck.
Turning to V241A;F251A;L252A;K262A, the “effect of a mutation on the interaction” value is “disrupting interaction strength”.
